Source: patent publication CN115536747A (YIKESITE BEIJING PHARMACEUTICAL TECH DEVELOPMENT CO LTD, dated 2022)
Substitutions are numbered along the chain they refer to.

B1: 1F7单链抗体 (scFv shown on M13 phage) (scFv)
scFv: QVQLVQSGAEVKKPGASVKVSCKASGYTFTSYGINWVRQATGRGLEWMGWMNPNSGNTGYAQKFQGRVTITADESTSTAYMELSSLRSEDTAVYYCARPNTGGDGAFDIWGQGTMVTVSSGGSSRSSSSGGGGSGGGGDIQLTQSPSSVSASVGDRVTITCRASQGISSWLAWYRQKPGKAPKLLIYAASSLQSGVPSRFSGSGSGTDFTLTISSLQPEDFATYYCQQANSFPITFGQGTRLEIK
notes: The phage coat protein fusion is not described; also called hit
B2: 1F7亲本抗体 (IgG形式) (antibody, V domains shown)
VH: QVQLVQSGAEVKKPGASVKVSCKASGYTFTSYGINWVRQATGRGLEWMGWMNPNSGNTGYAQKFQGRVTITADESTSTAYMELSSLRSEDTAVYYCARPNTGGDGAFDIWGQGTMVTVSS
VL: DIQLTQSPSSVSASVGDRVTITCRASQGISSWLAWYRQKPGKAPKLLIYAASSLQSGVPSRFSGSGSGTDFTLTISSLQPEDFATYYCQQANSFPITFGQGTRLEIKR
B3: 突变体F7A (IgG形式) (antibody, V domains shown)
VH: B2 VH with S31N, N54R
VL: B2 VL with A50R, S52R, I96V
B4: 双特异性抗体F7AK3 (TROP2×CD3, cFIST形式) (bispecific antibody, human IgG4 S228P, kappa)
heavy: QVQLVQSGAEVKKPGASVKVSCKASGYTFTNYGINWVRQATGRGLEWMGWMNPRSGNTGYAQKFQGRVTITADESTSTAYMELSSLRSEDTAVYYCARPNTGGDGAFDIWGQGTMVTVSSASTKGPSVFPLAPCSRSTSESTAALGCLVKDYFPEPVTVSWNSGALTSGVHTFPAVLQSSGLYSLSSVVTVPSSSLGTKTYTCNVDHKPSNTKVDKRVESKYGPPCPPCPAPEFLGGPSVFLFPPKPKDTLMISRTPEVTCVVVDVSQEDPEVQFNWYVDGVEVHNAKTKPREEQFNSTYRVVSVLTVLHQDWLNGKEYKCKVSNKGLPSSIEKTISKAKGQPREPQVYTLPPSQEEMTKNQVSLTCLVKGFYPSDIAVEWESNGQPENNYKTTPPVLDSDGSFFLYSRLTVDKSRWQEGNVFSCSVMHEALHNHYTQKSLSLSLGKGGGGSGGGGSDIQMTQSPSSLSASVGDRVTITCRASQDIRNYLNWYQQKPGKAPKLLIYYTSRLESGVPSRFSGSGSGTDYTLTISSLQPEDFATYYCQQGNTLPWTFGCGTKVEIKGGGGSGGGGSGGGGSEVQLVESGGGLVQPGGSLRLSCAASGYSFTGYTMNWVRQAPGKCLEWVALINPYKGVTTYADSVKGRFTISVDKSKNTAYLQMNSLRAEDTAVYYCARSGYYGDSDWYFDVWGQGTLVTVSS
light: DIQLTQSPSSVSASVGDRVTITCRASQGISSWLAWYRQKPGKAPKLLIYRARSLQSGVPSRFSGSGSGTDFTLTISSLQPEDFATYYCQQANSFPVTFGQGTRLEIKRTVAAPSVFIFPPSDEQLKSGTASVVCLLNNFYPREAKVQWKVDNALQSGNSQESVTEQDSKDSTYSLSSTLTLSKADYEKHKVYACEVTHQGLSSPVTKSFNRGEC
notes: also called F7AK3双抗

Key:
[1] = biological target: T1, TROP2抗原 (TROP2-Fc融合蛋白, Acrobiosystems, 目录号TR2-H5253) (human, UniProt P09758 27-274); experiment: monoclonal phage ELISA, TROP2 antigen coated at 1 μg/ml, positive = more than 3x negative control
T1 construct: not shown: human antibody Fc
T1 sequence (looked up): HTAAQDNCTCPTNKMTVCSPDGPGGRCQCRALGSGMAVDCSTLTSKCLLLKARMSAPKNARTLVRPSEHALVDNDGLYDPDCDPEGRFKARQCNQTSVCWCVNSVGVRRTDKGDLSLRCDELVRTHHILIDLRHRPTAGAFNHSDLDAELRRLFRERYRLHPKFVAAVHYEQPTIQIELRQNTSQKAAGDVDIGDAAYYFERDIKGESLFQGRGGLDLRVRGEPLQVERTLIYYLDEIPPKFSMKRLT

[2] = biological target: T2, Rhesus TROP-2 (猴TROP2蛋白, SPR antigen) (Rhesus (the 2nd table); 食蟹猴 (text paragraph 139), UniProt A0A5F8AGB8 27-274); experiment: SPR, IgG
T2 construct: also called 食蟹猴TROP2
T2 sequence: T1 sequence (looked up) with M36V, S67N, I204V

[3] = biological target: T3, Human TROP-2 (人TROP2蛋白, SPR antigen) (human, UniProt P09758 27-274, limits assumed); experiment: SPR, IgG
T3 construct: The construct used in SPR is not described
T3 sequence (looked up): T1 sequence (looked up)

[4] = biological target: T3, Human TROP-2 (人TROP2蛋白, SPR antigen); experiment: ELISA (内在亲和力)
[5] = biological target: T2, Rhesus TROP-2 (猴TROP2蛋白, SPR antigen); experiment: SPR, IgG; reference 1F7
[6] = biological target: T3, Human TROP-2 (人TROP2蛋白, SPR antigen); experiment: SPR, IgG; reference 1F7
[7] = biological target: T4, 人T细胞的CD3 (CD3+ T细胞) (human, UniProt P07766 23-207; P04234 22-171; P09693 23-182; P20963 22-164); experiment: flow cytometry on CD3+ T cells, PE anti-human IgG Fc
T4 construct: whole, on cells; also called T细胞表面抗原CD3

[8] = biological target: T5, 人TROP2 on cells (表达TROP2的CHO细胞系; MCF, MDA-MB-231, MDA-MB-468, HCC1395 breast cancer cells) (human, UniProt P09758 27-323); experiment: flow cytometry on HCC1395 cells, PE anti-human IgG Fc
T5 construct: whole, on cells; also called 细胞膜表面的TROP2抗原; 人细胞表面抗原TROP2
T5 sequence (looked up): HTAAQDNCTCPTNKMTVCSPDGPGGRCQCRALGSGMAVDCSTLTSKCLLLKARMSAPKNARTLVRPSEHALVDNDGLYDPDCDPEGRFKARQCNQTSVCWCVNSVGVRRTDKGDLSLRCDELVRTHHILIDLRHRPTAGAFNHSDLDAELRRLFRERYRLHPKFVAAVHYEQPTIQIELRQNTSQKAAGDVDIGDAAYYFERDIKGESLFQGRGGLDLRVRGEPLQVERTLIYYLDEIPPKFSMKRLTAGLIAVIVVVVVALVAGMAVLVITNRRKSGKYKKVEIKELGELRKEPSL

[9] = biological target: T5, 人TROP2 on cells (表达TROP2的CHO细胞系; MCF, …); experiment: flow cytometry on MCF cells, PE anti-human IgG Fc
[10] = biological target: T5, 人TROP2 on cells (表达TROP2的CHO细胞系; MCF, …); experiment: flow cytometry on MDA-MB-468 cells, PE anti-human IgG Fc
[11] = biological target: T5, 人TROP2 on cells (表达TROP2的CHO细胞系; MCF, …); experiment: flow cytometry on MDA-MB-231 cells, PE anti-human IgG Fc

T4 sequence (P07766 23-207, chain 1 of 4): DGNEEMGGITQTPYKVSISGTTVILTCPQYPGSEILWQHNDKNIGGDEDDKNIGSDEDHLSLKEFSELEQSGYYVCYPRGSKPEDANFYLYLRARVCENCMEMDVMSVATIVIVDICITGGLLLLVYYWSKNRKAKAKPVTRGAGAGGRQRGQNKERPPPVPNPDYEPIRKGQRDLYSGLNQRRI
T4 sequence (P04234 22-171, chain 2 of 4): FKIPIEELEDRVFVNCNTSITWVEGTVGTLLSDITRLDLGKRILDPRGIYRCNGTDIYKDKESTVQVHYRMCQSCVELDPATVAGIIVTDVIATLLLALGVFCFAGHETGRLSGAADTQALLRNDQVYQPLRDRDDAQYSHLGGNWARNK
T4 sequence (P09693 23-182, chain 3 of 4): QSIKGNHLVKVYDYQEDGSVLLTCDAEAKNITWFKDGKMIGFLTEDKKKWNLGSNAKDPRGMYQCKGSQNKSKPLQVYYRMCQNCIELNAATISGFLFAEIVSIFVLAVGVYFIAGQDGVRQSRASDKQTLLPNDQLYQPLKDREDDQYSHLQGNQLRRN
T4 sequence (P20963 22-164, chain 4 of 4): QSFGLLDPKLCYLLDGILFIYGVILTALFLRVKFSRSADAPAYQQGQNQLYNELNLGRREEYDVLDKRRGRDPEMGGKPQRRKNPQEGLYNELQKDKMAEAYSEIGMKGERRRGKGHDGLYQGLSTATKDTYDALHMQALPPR

Binder	binding result [1]	Kd [2] [nM]	koff [2] [s⁻¹]	kon [2] [M⁻¹ s⁻¹]	Kd [3] [nM]	koff [3] [s⁻¹]	kon [3] [M⁻¹ s⁻¹]	Kd [4] [nM]	fold improvement of affinity against 1F7 [5]	fold improvement of binding against 1F7 [6]	EC50 [7] [µg/mL]	EC50 [8] [µg/mL]	EC50 [9] [µg/mL]	EC50 [10] [µg/mL]	EC50 [11] [µg/mL]
B1	binds														
B2		40.7	0.000942	23100	7.57	0.000892	118000	~7.5							
B3		12.8	0.00165	128000	4.35	0.000834	192000		3.18 倍	1.74 倍					
B4											0.568	0.0532	0.205	0.0668	0.0891
